Data taken from patent US20220195407, “OPTIMIZATION OF ENGINEERED MEGANUCLEASES FOR RECOGNITION SEQUENCES” (Precision BioSciences, Inc., published 2022).

Legend:
Experiment in all cases: cell_activity; CHO iGFFP reporter
[1] = biological target: T1, LOX 3-4m.1679 (artificial (I-CreI derived))
T1 chain: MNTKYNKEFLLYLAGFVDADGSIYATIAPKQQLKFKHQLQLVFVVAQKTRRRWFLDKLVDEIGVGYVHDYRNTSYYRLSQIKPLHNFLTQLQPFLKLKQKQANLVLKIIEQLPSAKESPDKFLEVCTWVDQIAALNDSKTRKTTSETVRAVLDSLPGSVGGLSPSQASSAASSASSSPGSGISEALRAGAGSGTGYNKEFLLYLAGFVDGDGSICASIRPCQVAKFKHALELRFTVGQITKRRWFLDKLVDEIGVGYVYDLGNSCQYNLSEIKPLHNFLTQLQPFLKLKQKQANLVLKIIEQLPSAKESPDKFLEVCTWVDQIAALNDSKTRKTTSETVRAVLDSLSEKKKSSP
Excerpt: (§1) A CHO cell reporter system (see WO/2012/167192, FIG. 3) was used to determine whether the engineered meganucleases generated in these studies could recognize and cleave the modified LOX 3-4 recognition sequences in Table 87. To perform the assay, a pair of CHO cell reporter lines were produced, which carried a non-functional Green Fluorescent Protein (GFP) gene expression cassette integrated into the genome of the cell. The GFP gene in each cell line was interrupted by a pair of recognition sequences such that intracellular cleavage of either recognition sequence by a meganuclease would stimulate a homologous recombination event resulting in a functional GFP gene. In both cell lines, one of the recognition sequences was derived from the LOX 3-4 recognition sequence (i.e., those sequences disclosed in Table 87), and the second recognition sequence was specifically recognized by a control meganuclease called “CHO 23/24.” CHO reporter cells comprising a recognition sequence derived from the LOX 3-4 recognition sequence and the CHO 23/24 recognition sequence are referred to herein as “test cells.”
(§2) Novel engineered meganucleases derived from the LOX 3-4x.109 meganuclease were prepared by making amino acid substitutions at one or more positions in the first subunit and one or more positions in the second subunit. These engineered meganucleases were then evaluated for cleavage of the LOX 3-4 recognition sequence modified to have a GCAT center sequence (SEQ ID NO: 292) in the CHO reporter assay according to Example 1. The substitutions in each subunit are provided in Tables 151 and 152, respectively. Novel meganucleases which were modified to comprise the residues recited in the tables below continued to cleave the LOX 3-4 recognition sequence having a GCAT four base pair center sequence.

[2] = biological target: T2, LOX 3-4m.1687 (artificial (I-CreI derived))
T2 chain: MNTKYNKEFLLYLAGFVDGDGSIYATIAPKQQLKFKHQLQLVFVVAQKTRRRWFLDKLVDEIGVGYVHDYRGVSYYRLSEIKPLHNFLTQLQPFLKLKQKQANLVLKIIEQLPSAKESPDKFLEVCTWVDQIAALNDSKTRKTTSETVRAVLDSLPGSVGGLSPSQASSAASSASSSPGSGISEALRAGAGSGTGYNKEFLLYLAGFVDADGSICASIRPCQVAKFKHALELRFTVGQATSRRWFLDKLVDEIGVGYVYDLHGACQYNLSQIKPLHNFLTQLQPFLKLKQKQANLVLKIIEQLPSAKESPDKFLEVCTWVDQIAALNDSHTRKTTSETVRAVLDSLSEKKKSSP
Excerpt: as §1, §2

[3] = biological target: T3, LOX 3-4m.1689 (artificial (I-CreI derived))
T3 chain: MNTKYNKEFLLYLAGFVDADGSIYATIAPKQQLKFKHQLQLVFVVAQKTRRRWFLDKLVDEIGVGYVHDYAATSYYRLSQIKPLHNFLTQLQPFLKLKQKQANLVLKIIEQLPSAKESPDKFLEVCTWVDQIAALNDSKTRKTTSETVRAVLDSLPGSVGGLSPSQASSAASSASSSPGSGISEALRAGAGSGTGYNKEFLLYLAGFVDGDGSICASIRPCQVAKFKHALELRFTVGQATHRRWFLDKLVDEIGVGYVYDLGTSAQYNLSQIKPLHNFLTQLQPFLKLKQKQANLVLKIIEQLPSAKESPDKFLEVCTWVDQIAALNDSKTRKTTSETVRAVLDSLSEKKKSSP
Excerpt: as §1, §2

[4] = biological target: T4, LOX 3-4m.1601 (artificial (I-CreI derived))
T4 chain: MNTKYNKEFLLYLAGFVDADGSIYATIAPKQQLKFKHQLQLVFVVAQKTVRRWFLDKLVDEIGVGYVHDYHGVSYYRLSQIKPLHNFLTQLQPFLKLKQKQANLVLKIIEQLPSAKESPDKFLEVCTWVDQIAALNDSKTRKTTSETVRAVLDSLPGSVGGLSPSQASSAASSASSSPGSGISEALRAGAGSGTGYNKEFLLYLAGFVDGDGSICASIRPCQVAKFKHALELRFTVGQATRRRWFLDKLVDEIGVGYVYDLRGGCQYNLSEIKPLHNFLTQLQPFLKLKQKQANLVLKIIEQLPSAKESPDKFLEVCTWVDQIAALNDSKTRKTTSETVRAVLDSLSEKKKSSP
Excerpt: as §1, §2

[5] = biological target: T5, LOX 3-4m.1782 (artificial (I-CreI derived))
T5 chain: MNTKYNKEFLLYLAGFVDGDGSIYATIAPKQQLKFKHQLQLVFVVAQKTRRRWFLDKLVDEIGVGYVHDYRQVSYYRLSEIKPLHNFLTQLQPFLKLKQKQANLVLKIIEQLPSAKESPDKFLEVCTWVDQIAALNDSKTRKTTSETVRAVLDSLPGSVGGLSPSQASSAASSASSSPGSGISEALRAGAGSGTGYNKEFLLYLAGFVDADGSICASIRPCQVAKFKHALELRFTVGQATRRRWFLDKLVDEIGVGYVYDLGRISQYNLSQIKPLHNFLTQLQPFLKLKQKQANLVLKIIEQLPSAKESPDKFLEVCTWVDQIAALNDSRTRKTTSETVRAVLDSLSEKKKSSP
Excerpt: as §1
(§3) Novel engineered meganucleases derived from the LOX 3-4x.109 meganuclease were prepared by making amino acid substitutions at one or more positions in the first subunit and one or more positions in the second subunit. These engineered meganucleases were then evaluated for cleavage of the LOX 3-4 recognition sequence modified to have a GCGA center sequence (SEQ ID NO: 314) in the CHO reporter assay according to Example 1.

[6] = biological target: T6, LOX 3-4m.1781 (artificial (I-CreI derived))
T6 chain: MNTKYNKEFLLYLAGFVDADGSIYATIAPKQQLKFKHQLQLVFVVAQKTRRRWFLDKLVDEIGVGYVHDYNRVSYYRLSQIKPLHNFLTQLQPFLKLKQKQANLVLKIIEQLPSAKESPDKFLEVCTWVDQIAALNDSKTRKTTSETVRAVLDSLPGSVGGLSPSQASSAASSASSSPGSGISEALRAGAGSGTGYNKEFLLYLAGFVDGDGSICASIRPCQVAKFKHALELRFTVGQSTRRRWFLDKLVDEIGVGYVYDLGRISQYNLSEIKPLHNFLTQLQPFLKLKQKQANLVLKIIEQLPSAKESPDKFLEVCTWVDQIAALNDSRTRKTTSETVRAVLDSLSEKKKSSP
Excerpt: as §1, §3

[7] = biological target: T7, LOX 3-4m.1745 (artificial (I-CreI derived))
T7 chain: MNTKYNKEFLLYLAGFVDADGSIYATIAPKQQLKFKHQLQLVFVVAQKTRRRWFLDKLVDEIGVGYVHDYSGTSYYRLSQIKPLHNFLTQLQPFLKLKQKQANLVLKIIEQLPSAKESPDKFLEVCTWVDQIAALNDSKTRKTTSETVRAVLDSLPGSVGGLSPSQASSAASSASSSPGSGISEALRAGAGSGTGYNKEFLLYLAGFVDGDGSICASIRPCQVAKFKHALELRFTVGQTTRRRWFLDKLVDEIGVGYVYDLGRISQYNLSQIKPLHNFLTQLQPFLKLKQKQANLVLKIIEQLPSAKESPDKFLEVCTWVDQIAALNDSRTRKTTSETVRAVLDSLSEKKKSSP
Excerpt: as §1, §3

[8] = biological target: T8, LOX 3-4m.1780 (artificial (I-CreI derived))
T8 chain: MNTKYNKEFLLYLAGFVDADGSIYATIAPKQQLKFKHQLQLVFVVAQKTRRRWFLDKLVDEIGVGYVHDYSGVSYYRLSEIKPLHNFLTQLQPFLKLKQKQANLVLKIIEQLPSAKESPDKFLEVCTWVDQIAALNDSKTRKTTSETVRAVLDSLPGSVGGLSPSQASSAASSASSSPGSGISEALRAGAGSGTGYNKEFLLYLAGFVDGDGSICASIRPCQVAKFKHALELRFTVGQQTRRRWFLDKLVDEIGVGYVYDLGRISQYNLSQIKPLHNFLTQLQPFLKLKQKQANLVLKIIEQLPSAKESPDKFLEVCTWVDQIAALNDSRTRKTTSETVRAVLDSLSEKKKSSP
Excerpt: as §1, §3

[9] = biological target: T9, LOX 3-4 M.23 (artificial (I-CreI derived))
T9 chain: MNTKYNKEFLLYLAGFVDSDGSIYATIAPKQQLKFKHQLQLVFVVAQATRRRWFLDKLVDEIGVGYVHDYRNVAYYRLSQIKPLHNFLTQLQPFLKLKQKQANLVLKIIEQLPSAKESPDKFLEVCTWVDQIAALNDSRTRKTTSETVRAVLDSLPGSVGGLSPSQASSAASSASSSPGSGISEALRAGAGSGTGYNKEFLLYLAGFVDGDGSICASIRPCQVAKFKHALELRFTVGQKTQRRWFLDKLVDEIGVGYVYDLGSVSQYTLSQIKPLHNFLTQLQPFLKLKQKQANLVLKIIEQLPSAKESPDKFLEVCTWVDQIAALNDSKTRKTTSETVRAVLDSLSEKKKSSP
Excerpt: as §1
as §2, with “first” for “first subunit and one or more positions in the second”, “GTAA” for “GCAT”, “358)” for “292)”, “1.” for “1. The substitutions in each subunit are provided in Tables 151 and 152, respectively.”, “were capable of cleaving” for “continued to cleave”

[10] = biological target: T10, LOX 3-4 M.15 (artificial (I-CreI derived))
T10 chain: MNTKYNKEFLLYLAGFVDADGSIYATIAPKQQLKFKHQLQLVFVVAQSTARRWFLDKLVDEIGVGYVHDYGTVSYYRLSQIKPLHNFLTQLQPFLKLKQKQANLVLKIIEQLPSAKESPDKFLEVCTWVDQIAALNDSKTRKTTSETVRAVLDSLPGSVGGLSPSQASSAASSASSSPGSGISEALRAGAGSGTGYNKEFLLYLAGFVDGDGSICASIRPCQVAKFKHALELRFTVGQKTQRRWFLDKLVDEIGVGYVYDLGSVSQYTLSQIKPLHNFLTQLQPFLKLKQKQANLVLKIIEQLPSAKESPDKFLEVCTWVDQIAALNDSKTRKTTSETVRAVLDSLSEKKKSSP
Excerpt: as §1
as §2, with “first” for “first subunit and one or more positions in the second”, “GTAA” for “GCAT”, “358)” for “292)”, “1.” for “1. The substitutions in each subunit are provided in Tables 151 and 152, respectively.”, “were capable of cleaving” for “continued to cleave”

[11] = biological target: T11, LOX 3-4 M.6 (artificial (I-CreI derived))
T11 chain: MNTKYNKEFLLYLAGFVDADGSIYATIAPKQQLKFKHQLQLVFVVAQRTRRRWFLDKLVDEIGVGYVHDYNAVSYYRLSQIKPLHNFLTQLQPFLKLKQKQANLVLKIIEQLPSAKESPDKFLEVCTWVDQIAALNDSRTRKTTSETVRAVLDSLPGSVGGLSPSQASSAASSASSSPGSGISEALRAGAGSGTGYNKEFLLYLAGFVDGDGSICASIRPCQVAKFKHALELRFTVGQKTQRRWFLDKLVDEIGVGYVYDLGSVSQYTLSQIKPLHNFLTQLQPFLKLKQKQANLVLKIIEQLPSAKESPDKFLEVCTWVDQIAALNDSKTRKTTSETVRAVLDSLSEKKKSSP
Excerpt: as §1
as §2, with “first” for “first subunit and one or more positions in the second”, “GTAA” for “GCAT”, “358)” for “292)”, “1.” for “1. The substitutions in each subunit are provided in Tables 151 and 152, respectively.”, “were capable of cleaving” for “continued to cleave”

B1: LOX 3-4 GCAT (dsDNA)
DNA 1: GTATAGCATGCATTATACGAAG
DNA 2: CTTCGTATAATGCATGCTATAC
activity [1]: 10.8 % GFP
activity [2]: 10.9 % GFP
activity [3]: 11.2 % GFP
activity [4]: 10.9 % GFP

B2: LOX 3-4 GCGA (dsDNA)
DNA 1: GTATAGCATGCGATATACGAAG
DNA 2: CTTCGTATATCGCATGCTATAC
activity [5]: 5.45 % GFP
activity [6]: 6.58 % GFP
activity [7]: 5.13 % GFP
activity [8]: 6.53 % GFP

B3: LOX 3-4 GTAA (dsDNA)
DNA 1: GTATAGCATGTAATATACGAAG
DNA 2: CTTCGTATATTACATGCTATAC
activity [9]: 13.2 % GFP
activity [10]: 11.5 % GFP
activity [11]: 11.4 % GFP
